Source: patent US20180346600
Where a chain is given by its changes, count along the chain named. Names and notes keep the numbering of the source.

Tests used:
Test in all cases: HEK293-F co-expression, Protein A purification, non-reducing SDS-PAGE densitometry
[1] = biological target: FcCH3B, A205 (E357N/K370R)
[2] = biological target: T1, FcCH3B, B240 (D399G/K392G/K409M)
T1 chain: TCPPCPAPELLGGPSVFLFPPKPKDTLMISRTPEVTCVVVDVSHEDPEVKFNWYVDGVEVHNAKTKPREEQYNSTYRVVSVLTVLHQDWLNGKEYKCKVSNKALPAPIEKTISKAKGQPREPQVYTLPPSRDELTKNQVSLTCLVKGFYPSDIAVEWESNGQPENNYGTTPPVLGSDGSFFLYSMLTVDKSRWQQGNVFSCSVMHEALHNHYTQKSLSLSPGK

FcCH3B, A241 (E357N) = biological target: FcCH3B, A241 (E357N)
FcCH3B, A216 (E357N) = biological target: FcCH3B, A216 (E357N)
[3] = biological target: FcCH3B, A210 (E357N/K370H)
[4] = biological target: T2, FcCH3B, B215 (D399W/K392G/K409M)
T2 chain: T1 chain with G175W

B1: scFv-FcCH3A, A205 (E357D/S364W/K370E) (protein)
chain: T1 chain with E133D, S140W, K146E, G168K, G175D, M185K
- (scFv-Fc)(Fc) (heterodimer)(%) [1]: 88.8%

B2: scFv-FcCH3A, B240 (K392S/K409R/D399L) (protein)
chain: T1 chain with G168S, G175L, M185R
- (scFv-Fc)(Fc) (heterodimer)(%) [2]: 83.3%

B3: scFv-FcCH3A, A241 (E357N/S364W/K370E) (protein)
chain: T1 chain with E133N, S140W, K146E, G168K, G175D, M185K
- (scFv-Fc)(Fc) (heterodimer)(%) (FcCH3B, A241 (E357N)): 81%

B4: scFv-FcCH3A, A216 (E357G/S364W/K370E) (protein)
chain: T1 chain with E133G, S140W, K146E, G168K, G175D, M185K
- (scFv-Fc)(Fc) (heterodimer)(%) (FcCH3B, A216 (E357N)): 80.3%

B5: scFv-FcCH3A, A210 (E357A/S364Y/K370E) (protein)
chain: T1 chain with E133A, S140Y, K146E, G168K, G175D, M185K
- (scFv-Fc)(Fc) (heterodimer)(%) [3]: 80.8%

B6: scFv-FcCH3A, B215 (K392R/K409R/D399L) (protein)
chain: T1 chain with G168R, G175L, M185R
- (scFv-Fc)(Fc) (heterodimer)(%) [4]: 78.1%
